# B1: human p16 (other)
# chain: MEPAAGSSMEPSADWLATAAARGRVEEVRALLEAGALPNAPNSYGRRPIQVMMMGSARVAELLLLHGAEPNCADPATLTRPVHDAAREGFLDTLVVLHRAGARLDVRDAWGRLPVDLAEELGHRDVARYLRAAAGGTRGSNHARIDAAEGPSDIPD
# notes: also called p16INK4
# Key:
# CDC2/cyclin B complex = CDC2/cyclin B complex (UniProt P06493 1-297; P14635 1-433); test: cell-based or functional assay
# CDK4/cyclin D1 complex [1] = target: T1, CDK4/cyclin D1 complex (UniProt P11802 1-303; P24385 1-295); test: cell-based or functional assay
# CDK2/cyclin A complex = CDK2/cyclin A complex (UniProt P24941 1-298; P20248 1-432); test: cell-based or functional assay
# CDK2/cyclin E complex = CDK2/cyclin E complex (UniProt P24941 1-298; P24864 16-410); test: cell-based or functional assay
# CDK4/cyclin D1 complex [2] = target: T1, CDK4/cyclin D1 complex; test: in vitro kinase inhibition assay (32P incorporation into GST-Rb)
# Experimental: Partial purification of CDK4/cyclin D1 was achieved by a 20–40% ammonium sulfate preparation of the cell lysate and was used in the assays. […] These assays were carried out in 96 well plates (Nunc, Naperville, Ill.) and monitored by γ-^32P-ATP incorporation.
# The concentrations of GST-Rb and histone H1 were 4.4 mM and 19 mM, respectively, and the concentration of ATP was 50–60 mM. The reaction mixtures contained 50 mM Tris-Cl pH 7.5, 10 mM MgCl_2, and 1 mM DTT in a total volume of 50 or 100 µl. After incubation at 30° C. for 10–20 minutes, the reaction was terminated by the addition of a stop solution containing EDTA. The phosphorylated substrates were captured either by GST-Sepharose or TCA precipitation and then monitored for radioactivity (Microplate Scintillation Counter, Packard, Meriden, Conn.).
# T1 sequence (P11802 whole entry, chain 1 of 2): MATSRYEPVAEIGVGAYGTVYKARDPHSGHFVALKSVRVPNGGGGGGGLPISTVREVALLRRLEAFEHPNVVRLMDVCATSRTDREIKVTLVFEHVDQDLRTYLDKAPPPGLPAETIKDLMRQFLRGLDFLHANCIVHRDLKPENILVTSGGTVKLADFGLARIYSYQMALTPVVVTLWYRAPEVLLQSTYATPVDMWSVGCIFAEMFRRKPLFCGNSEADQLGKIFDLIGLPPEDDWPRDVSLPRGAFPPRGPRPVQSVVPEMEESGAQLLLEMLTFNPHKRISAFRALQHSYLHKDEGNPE
# T1 sequence (P24385 whole entry, chain 2 of 2): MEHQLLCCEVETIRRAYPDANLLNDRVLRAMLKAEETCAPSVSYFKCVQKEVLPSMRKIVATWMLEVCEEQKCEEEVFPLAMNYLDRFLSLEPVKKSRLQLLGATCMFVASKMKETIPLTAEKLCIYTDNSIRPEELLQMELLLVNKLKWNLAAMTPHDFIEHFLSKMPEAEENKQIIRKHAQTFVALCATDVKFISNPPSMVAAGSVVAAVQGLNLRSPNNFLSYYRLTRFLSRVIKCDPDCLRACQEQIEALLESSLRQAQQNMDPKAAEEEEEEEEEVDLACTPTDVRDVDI
# Sequence of CDC2/cyclin B complex (P06493 whole entry, chain 1 of 2): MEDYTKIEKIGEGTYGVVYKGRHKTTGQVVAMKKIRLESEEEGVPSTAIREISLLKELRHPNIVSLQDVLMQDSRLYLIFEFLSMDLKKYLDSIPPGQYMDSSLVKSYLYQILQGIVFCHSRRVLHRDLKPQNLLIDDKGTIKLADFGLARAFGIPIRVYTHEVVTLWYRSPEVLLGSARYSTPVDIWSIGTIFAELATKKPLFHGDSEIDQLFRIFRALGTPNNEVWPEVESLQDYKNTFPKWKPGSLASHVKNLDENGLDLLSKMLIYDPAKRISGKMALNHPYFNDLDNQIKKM
# Sequence of CDC2/cyclin B complex (P14635 whole entry, chain 2 of 2): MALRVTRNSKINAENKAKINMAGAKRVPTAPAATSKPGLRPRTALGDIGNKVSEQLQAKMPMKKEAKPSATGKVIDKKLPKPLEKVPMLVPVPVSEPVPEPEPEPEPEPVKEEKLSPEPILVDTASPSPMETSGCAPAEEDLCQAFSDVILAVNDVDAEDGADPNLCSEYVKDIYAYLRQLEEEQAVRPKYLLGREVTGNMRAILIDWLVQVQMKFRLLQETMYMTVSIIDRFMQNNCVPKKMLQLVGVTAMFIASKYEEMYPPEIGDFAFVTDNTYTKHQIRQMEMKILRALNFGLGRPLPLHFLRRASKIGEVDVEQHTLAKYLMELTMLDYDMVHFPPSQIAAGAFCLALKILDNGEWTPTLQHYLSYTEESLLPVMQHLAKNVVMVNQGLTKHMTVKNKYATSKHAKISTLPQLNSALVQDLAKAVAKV
binder,measurement,setting,value
B1,"IC50, in vitro kinase assay",CDC2/cyclin B complex,> 500 nM
same,"IC50, in vitro kinase assay",CDK4/cyclin D1 complex [1],250 nM
same,"IC50, in vitro kinase assay",CDK2/cyclin A complex,> 500 nM
same,"IC50, in vitro kinase assay",CDK2/cyclin E complex,> 500 nM
same,Ki,CDK4/cyclin D1 complex [2],75 nM

# Reference: patent US6420345 (CELL GENESYS, dated 2002)
